Two substances from PMC10798628 can be followed below.

Test [1] has as its target receptor for activated protein C kinase 1 (RACK1) (human (endogenous in Caco-2)) (UniProt P63244).
Test [2] has the same target. The source holds these as a separate data set.

For “recombinant Trichinella spiralis serine proteinase with GST tag (rTsSPc)”, in test [1], the inhibition rate of anti-RACK1 antibody on T. spiralis IIL invasion of the Caco-2 monolayer, compared to the PBS group came to 5.12% and the inhibition rate of the RACK1 inhibitor HO on T. spiralis IIL invasion of the Caco-2 monolayer, compared to the PBS group is 7.37%.

In test [2], “recombinant Trichinella spiralis serine proteinase with GST tag (rTsSPc) (enzyme)” yielded an expression level of RACK1 in Caco-2 cells treated with rTsSPc, Western blot, increase compared to the PBS group of 2.11 folds and a p-ERK1/2 level in Caco-2 cells treated with rTsSPc, Western blot, increase compared to the PBS group of 18.3 folds.
